Here are results for 80 sequences from the supplement of paper PMC10724198.

± gives the standard deviation of the averaged measurements.
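Further: PSI is a weighted mean of sequencing reads over stability bins, variants kept only with over 10 reads, mCherry proximal and sfGFP distal, peptide attached via GGGS linker.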

The subject of this data set is Saccharomyces cerevisiae. The data set can be described thus: protein stability index of tFT-peptide fusion (C-terminal peptide) (PSI (0-1 scale)); higher = more stable (slower turnover). The conditions noted are these: genetic background: wild type; temperature: 30 C.
TIGREENKIANI showed a protein stability index of 0.651 ± 0.016.

TILKLLSEELDK gave a protein stability index of 0.613 ± 0.025.

In turn, TISVNLYLPDLL returned a protein stability index of 0.677 ± 0.057.

The sequence TKDRIIMKKKKE had a protein stability index of 0.7214 ± 0.0031.

Regarding TKHCRFCKSGFV, the protein stability index is 0.7133 ± 0.0063.

For TKIPVLLKNSAN, the protein stability index is 0.704 ± 0.062.

TKIQFTITLIGK yielded a protein stability index of 0.578 ± 0.028.

Sequence TKKKNKLRNKQE yielded a protein stability index of 0.664 ± 0.048.

The sequence TKKKRKKKNTKK registered a protein stability index of 0.685 ± 0.061.

Consider TKKNKTKKGQNK, for which the protein stability index is 0.7099 ± 0.006.

TKRQKEKKKNKE registered a protein stability index of 0.735 ± 0.042.

Turning to TLCFRLGFLSYF, the protein stability index was found to be 0.604 ± 0.091.

In turn, TLDGGESSVVAV displayed a protein stability index of 0.685 ± 0.025.

TLESRPALVFFS returned a protein stability index of 0.681 ± 0.0088.

Consider TLGTSPPPAYLS, for which the protein stability index stood at 0.638 ± 0.013.

TLPDSSSTSPNL had a protein stability index of 0.696 ± 0.063.

Take TLPVPLPSVSHS: the protein stability index worked out at 0.685 ± 0.0098.

For the sequence TLSHPANNKNNL, the protein stability index turned out to be 0.681 ± 0.047.

For TLSPAPPPPLPP, the protein stability index was found to be 0.636 ± 0.093.

Consider TLSSGREVVGRW, for which the protein stability index worked out at 0.576 ± 0.012.

For TLTLVIPTSRDQ, the protein stability index was 0.717 ± 0.064.

As to TLWENEKNNKHG, the protein stability index was 0.705 ± 0.024.

TMLLPPPNLATI showed a protein stability index of 0.71 ± 0.026.

Take TMRSVSLRSVAS: the protein stability index was 0.675 ± 0.022.

In turn, TMVAVTSILGGL came in with a protein stability index of 0.655 ± 0.084.

TNIITRHNKKDK had a protein stability index of 0.657 ± 0.078.

In turn, TNTEEKRKIRRS returned a protein stability index of 0.697 ± 0.11.

The sequence TPAYTETNGLST returned a protein stability index of 0.73 ± 0.042.

The sequence TPDLNLYSKVYG yielded a protein stability index of 0.695 ± 0.048.

For TPEQMKIKRNVE, the protein stability index is 0.69 ± 0.009.

As for TPFVPLAPLPRS, the protein stability index is 0.728 ± 0.056.

For TPGMCDRQFGVD, the protein stability index was 0.685 ± 0.028.

TPHQPPPPRPSP had a protein stability index of 0.7057 ± 0.0037.

Sequence TPIAGGAKLFHV registered a protein stability index of 0.646 ± 0.058.

The sequence TPKTRPRSRAVK showed a protein stability index of 0.748 ± 0.015.

Regarding TPKWRRRLNQGL, the protein stability index is 0.719 ± 0.032.

For TPPLPLPSPPCP, the protein stability index came out at 0.7249 ± 0.0035.

Consider TPPLPPSLSPTH, for which the protein stability index worked out at 0.708 ± 0.0085.

On to TPPPHNRTKTTT, for which the protein stability index amounted to 0.682 ± 0.072.

For TPPPNTPSPLTI, the protein stability index came out at 0.654 ± 0.033.

On to TPPSHTVGIWAS, for which the protein stability index was 0.683 ± 0.039.

Sequence TPRTRPFNPPPR yielded a protein stability index of 0.729 ± 0.023.

The sequence TPSIFNRTNGPK yielded a protein stability index of 0.738 ± 0.043.

The sequence TPTSLPGPRVLS showed a protein stability index of 0.6596 ± 0.0054.

For TQEQVQKKLLKS, the protein stability index amounted to 0.665 ± 0.015.

Take TQLEHQRESKSI: the protein stability index came out at 0.672 ± 0.021.

Consider TQNYPSAFAIPA, for which the protein stability index came out at 0.552 ± 0.043.

TRDEGWSSAARK yielded a protein stability index of 0.637 ± 0.062.

Sequence TRETKKSIKKQN showed a protein stability index of 0.673 ± 0.058.

Regarding TRFCDFTSSVTT, the protein stability index was determined as 0.711 ± 0.041.

TRGRGDGQLDSA registered a protein stability index of 0.699 ± 0.024.

In turn, TRGRGLSGGRFF showed a protein stability index of 0.658 ± 0.037.

Turning to TRNGQKVGGVGA, the protein stability index stood at 0.725 ± 0.029.

TRNNDKQTDTIV returned a protein stability index of 0.729 ± 0.048.

Sequence TRPGKRNGRPPR registered a protein stability index of 0.6995 ± 0.0008.

In turn, TRPSGSFLALPP had a protein stability index of 0.685 ± 0.05.

Take TRPTQNKQIKNI: the protein stability index turned out to be 0.6141 ± 0.0032.

In turn, TRRLILSPIRHF registered a protein stability index of 0.636 ± 0.015.

The sequence TRSISPGTFWTS displayed a protein stability index of 0.723 ± 0.018.

In turn, TRSSHSHLETFV yielded a protein stability index of 0.684 ± 0.03.

Consider TSGLGYVDCPKL, for which the protein stability index was found to be 0.709 ± 0.033.

On to TSGNSTALKMGR, for which the protein stability index was found to be 0.741 ± 0.059.

For the sequence TSIDRLLIRYEK, the protein stability index turned out to be 0.649 ± 0.12.

Regarding TSKHLTQRKESK, the protein stability index was determined as 0.659 ± 0.0082.

Turning to TSKRRRWGTTRK, the protein stability index was determined as 0.672 ± 0.074.

The sequence TSPQHPWPPAPL came in with a protein stability index of 0.694 ± 0.06.

As for TSPSPPPTPCRS, the protein stability index came out at 0.702 ± 0.018.

In the case of TSPTPFVSCSLP, the protein stability index amounted to 0.629 ± 0.044.

With TSPVPPSTPAPP, the protein stability index is 0.6686 ± 0.0045.

In turn, TSRNFPGLHDNY had a protein stability index of 0.673 ± 0.052.

The sequence TSVAYVWRLFTE registered a protein stability index of 0.597 ± 0.016.

TSYEAKKKWQVI yielded a protein stability index of 0.645 ± 0.025.

With TSYNLPAAPHPV, the protein stability index amounted to 0.679 ± 0.037.

Turning to TTKNTSIKTKLK, the protein stability index came out at 0.67 ± 0.026.

The sequence TTKTGQVEIYKV registered a protein stability index of 0.661 ± 0.033.

On to TTLSMYFCMCVL, for which the protein stability index is 0.638 ± 0.14.

In the case of TTNGGPGNGAQN, the protein stability index was 0.66543 ± 0.00044.

As for TTNLDKKILKTS, the protein stability index stood at 0.6525 ± 0.0022.

The sequence TTPPFVSALPLS registered a protein stability index of 0.71142 ± 0.00043.

In turn, TTPTAPCLSSHD registered a protein stability index of 0.69 ± 0.042.
